The series deals with the molecule itself. The experiment in a line: SEC. On the technique in general: SEC sorts molecules by how far they enter the pores of the column.

One protein from paper doi:10.1101/2021.07.20.452843 (bioRxiv, 2021) can be followed below.

B1: His-PodJ(1-635) (domain or fragment, Caulobacter crescentus, UniProt Q9ZG88 1-635, looked up)
chain: MTAASPWSVKGIDPKAREVAKDLARRSGMTLGEWLNRMIIEGDGQTADPRLAGDDVPNRAYLEIVKDDAPPRIEIAEHPADEVGRVALALDRLTQRIEAAEGRNAAAITGIDHSVRDALTRLGASEREQIAVAARFEGAVDELKTEQARATERLRRIESEAAGPRSAEALRALEGALGKVAGHLYEGEARTREAIATLEAKLNQQSSGDPSALVEAVVARLGERLEAAETRTSDALRELGASFQALDQRLGAVETANPATGVQEGLDSLAATLTQKMEAARLEMAAKLRESADGRFDRMERKLGEMAAHVQAAEQRSAQAIERMGREIVGVADAFNRRVHAAESRNASAIEQVGGEVARIAASVEHKLNRADSVQAQALEKLGGEIARITEKLAERIGSAERRNALAIDDVGEQVARVTERLNQRHERSSQELVDRIRQSEERTLRMLEEAREKIDSRLSEAQRKLEAAPPSPPPAQAPAPVATAQRPVPPAASPFEDNYFSQAASFSTSEDEADAFDAPPAPARSFEVAEFPAAEPEEPAFAHDDYAIADGFEPESPRYEVEPEVSDFAPAEPSRPMSTRDIIEQARAAARAAAASEGKGGKAKSAKKEKASKASGSLFSGFGGFSTKKSKARL
Consider B1, for which the binding result is “binds”.
